Experimental data taken from patent US20200087373A1 (UNIVERSITY OF COPENHAGEN, published 2020).
Ends that are not written are not given here. * marks the point of attachment. C18 diacid = O=C(O)CCCCCCCCCCCCCCCCC(=O)*; C16 diacid = O=C(O)CCCCCCCCCCCCCCC(=O)*; C14 diacid = O=C(O)CCCCCCCCCCCCC(=O)*

B1: AT138 [hGIP(5-30)NH2-C18diacid/5] (peptide)
peptide: {C18 diacid}-TFISDYSIAMDKIHQQDFVNWLLAQK-NH2
SMILES: CC[C@H](C)[C@H](NC(=O)[C@H](CO)NC(=O)[C@H](Cc1ccc(O)cc1)NC(=O)[C@H](CC(=O)O)NC(=O)[C@H](CO)NC(=O)[C@@H](NC(=O)[C@H](Cc1ccccc1)NC(=O)[C@@H](NC(=O)CCCCCCCCCCCCCCCCC(=O)O)[C@@H](C)O)[C@@H](C)CC)C(=O)N[C@@H](C)C(=O)N[C@@H](CCSC)C(=O)N[C@@H](CC(=O)O)C(=O)N[C@@H](CCCCN)C(=O)N[C@H](C(=O)N[C@@H](Cc1c[nH]cn1)C(=O)N[C@@H](CCC(N)=O)C(=O)N[C@@H](CCC(N)=O)C(=O)N[C@@H](CC(=O)O)C(=O)N[C@@H](Cc1ccccc1)C(=O)N[C@H](C(=O)N[C@@H](CC(N)=O)C(=O)N[C@@H](Cc1c[nH]c2ccccc12)C(=O)N[C@@H](CC(C)C)C(=O)N[C@@H](CC(C)C)C(=O)N[C@@H](C)C(=O)N[C@@H](CCC(N)=O)C(=O)N[C@@H](CCCCN)C(N)=O)C(C)C)[C@@H](C)CC
B2: AT140 [hGIP(5-30)NH2-C16diacid/16] (peptide)
peptide: TFISDYSIAMDK(C16 diacid)IHQQDFVNWLLAQK-NH2
modifications: N-terminus assumed
SMILES: CC[C@H](C)[C@H](NC(=O)[C@H](CO)NC(=O)[C@H](Cc1ccc(O)cc1)NC(=O)[C@H](CC(=O)O)NC(=O)[C@H](CO)NC(=O)[C@@H](NC(=O)[C@H](Cc1ccccc1)NC(=O)[C@@H](N)[C@@H](C)O)[C@@H](C)CC)C(=O)N[C@@H](C)C(=O)N[C@@H](CCSC)C(=O)N[C@@H](CC(=O)O)C(=O)N[C@@H](CCCCNC(=O)CCCCCCCCCCCCCCC(=O)O)C(=O)N[C@H](C(=O)N[C@@H](Cc1c[nH]cn1)C(=O)N[C@@H](CCC(N)=O)C(=O)N[C@@H](CCC(N)=O)C(=O)N[C@@H](CC(=O)O)C(=O)N[C@@H](Cc1ccccc1)C(=O)N[C@H](C(=O)N[C@@H](CC(N)=O)C(=O)N[C@@H](Cc1c[nH]c2ccccc12)C(=O)N[C@@H](CC(C)C)C(=O)N[C@@H](CC(C)C)C(=O)N[C@@H](C)C(=O)N[C@@H](CCC(N)=O)C(=O)N[C@@H](CCCCN)C(N)=O)C(C)C)[C@@H](C)CC
B3: AT139 [hGIP(5-30)NH2-C14diacid/16] (peptide)
peptide: TFISDYSIAMDK(C14 diacid)IHQQDFVNWLLAQK-NH2
modifications: N-terminus assumed
SMILES: CC[C@H](C)[C@H](NC(=O)[C@H](CO)NC(=O)[C@H](Cc1ccc(O)cc1)NC(=O)[C@H](CC(=O)O)NC(=O)[C@H](CO)NC(=O)[C@@H](NC(=O)[C@H](Cc1ccccc1)NC(=O)[C@@H](N)[C@@H](C)O)[C@@H](C)CC)C(=O)N[C@@H](C)C(=O)N[C@@H](CCSC)C(=O)N[C@@H](CC(=O)O)C(=O)N[C@@H](CCCCNC(=O)CCCCCCCCCCCCC(=O)O)C(=O)N[C@H](C(=O)N[C@@H](Cc1c[nH]cn1)C(=O)N[C@@H](CCC(N)=O)C(=O)N[C@@H](CCC(N)=O)C(=O)N[C@@H](CC(=O)O)C(=O)N[C@@H](Cc1ccccc1)C(=O)N[C@H](C(=O)N[C@@H](CC(N)=O)C(=O)N[C@@H](Cc1c[nH]c2ccccc12)C(=O)N[C@@H](CC(C)C)C(=O)N[C@@H](CC(C)C)C(=O)N[C@@H](C)C(=O)N[C@@H](CCC(N)=O)C(=O)N[C@@H](CCCCN)C(N)=O)C(C)C)[C@@H](C)CC

Assays:
human GIP receptor [1] = target: T1, human GIP receptor (human, UniProt P48546 22-466); assay: 125I-hGIP competition binding, COS-7/hGIPR, 2% HSA;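 also: nonspecific binding defined as radioligand binding to untransfected cells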
T1 construct: whole, on cells; also called hGIPR
T1 sequence (looked up): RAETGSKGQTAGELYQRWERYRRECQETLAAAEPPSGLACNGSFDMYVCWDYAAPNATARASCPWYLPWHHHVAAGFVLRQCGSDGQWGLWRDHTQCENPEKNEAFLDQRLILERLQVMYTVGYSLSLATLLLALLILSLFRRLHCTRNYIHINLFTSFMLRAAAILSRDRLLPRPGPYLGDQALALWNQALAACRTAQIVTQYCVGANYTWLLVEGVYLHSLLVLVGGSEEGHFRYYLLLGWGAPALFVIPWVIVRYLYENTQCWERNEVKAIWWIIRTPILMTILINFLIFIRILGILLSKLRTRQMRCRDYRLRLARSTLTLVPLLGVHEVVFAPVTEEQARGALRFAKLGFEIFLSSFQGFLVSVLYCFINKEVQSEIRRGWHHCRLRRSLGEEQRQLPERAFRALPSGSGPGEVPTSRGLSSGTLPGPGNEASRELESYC
Experimental: (§1) After incubation, the cells were washed twice in ice-cold binding buffer (+/−2% HSA) and lysed using 200 mM NaOH with 1% SDS for 30 min. Nonspecific binding was determined as the binding of radioactive ligand to untransfected cells.

human GIP receptor [2] = target: T1, human GIP receptor; assay: 125I-hGIP competition binding, COS-7/hGIPR, 0.1% casein;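 also: nonspecific binding defined as radioligand binding measured on untransfected cells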
Experimental: as §1

human GIP receptor [3] = target: T1, human GIP receptor; assay: 125I-hGIP competition binding, COS-7 cells expressing hGIPR;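 also: nonspecific binding taken as radioligand bound by untransfected cells, binding buffer with or without 2% HSA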
Experimental: as §1

human GIP receptor [4] = target: T1, human GIP receptor; assay: IC50 with 2% HSA over IC50 with 0.1% casein, 125I-hGIP competition, COS-7/hGIPR
Experimental: as §1

Binder	IC50 (human GIP receptor [1])	logIC50 (human GIP receptor [1])	IC50 (human GIP receptor [2])	logIC50 (human GIP receptor [2])	IC50 (human GIP receptor [3])	log IC50 (human GIP receptor [3])	Fold change HSA (2%)/Casein (0.1%) (human GIP receptor [4])
B1	10100 nM	-5 log M	2640 nM	-5.6 log M	2640 nM	-5.6 log M	3.8 fold
B2	3280 nM	-5.5 log M	2160 nM	-5.7 log M	2160 nM	-5.7 log M	1.5 fold
B3	401 nM	-6.4 log M	153 nM	-6.8 log M	153 nM	-6.8 log M	2.6 fold
